We go through four molecules from patent US20120009179A1 (Kyowa Kirin, published 2012).

Assay [1] addresses T1, Aβ oligomers prepared from Amyloid β-protein, Human 1-42 peptide (human, UniProt P05067 672-713).
T1 construct: domain: Amyloid β-protein, Human 1-42 peptide; Non-covalent oligomer of synthetic Aβ1-42; Immobilized on a CM5 chip by amine coupling; also called amyloid β protein oligomer
Briefly: SPR (Biacore T100), Aβ oligomers amine-coupled on CM5 chip, antibody injected, Bivalent Analyte model (kd1/ka1). As for the experimental part: (§1) All the following operations were performed using Biocore T100 (manufactured by GE Healthcare Bio-sciences). The Aβ oligomers obtained in (1) of Example 2 were immobilized to the CM5 sensor chip (GE Healthcare Bio-sciences) using the amine coupling method.
(§2) Onto the chip to which the Aβ oligomers were immobilized for measurement samples prepared to have 8 levels of density by diluting from 30 μg/mL by doubling dilution in a stepwise manner (HV0LV0, HV0LV2a, HV0LV4 and HV12LV4) was sequentially injected and measured in the order from the lower density based on the automatic program of the multi-kinetics.
(§3) Using the analysis software attached to the device, Biacore T100 Evaluation software (manufactured by Biacore Life Science), analysis was carried out with the Bivalent Analyte model to calculate the binding rate constant ka and the dissociation rate constant kd of each of the antibody against Aβ oligomers.
Background: In SPR one partner is held on a chip, and binding of the other changes the refractive index at the surface.

For assay [2], the target named is T1, Aβ oligomers prepared from Amyloid …. Briefly: SPR (Biacore T100), Aβ oligomers amine-coupled on CM5 chip, antibody injected, Bivalent Analyte model (kd1). As for the experimental part:
as §1, §2, §3

Assay [3] shares this target. Briefly: SPR (Biacore T100), Aβ oligomers amine-coupled on CM5 chip, antibody injected, Bivalent Analyte model (ka1). As for the experimental part:
as §1, §2, §3

Assay [4] has as its target T2, Aβ monomers prepared from Biotin-beta-Amyloid, Human 1-40 (human, UniProt P05067 672-711, Biotin (position not stated; printed as "Biotin-beta-Amyloid, Human 1-40")).
T2 construct: domain: beta-Amyloid, Human 1-40; Captured on an SA sensor chip through biotin; also called amyloid β protein monomer
Briefly: SPR (Biacore T100), biotin-Aβ1-40 monomers captured on SA chip, antibody injected. As for the experimental part: In order to analyze the binding activity of the respective anti-Aβ oligomer humanized antibodies (HV0LV0, HV0LV2a, HV0LV4 and HV12LV4) against Aβ monomers, the binding activity was measured in the same manner as in (1) of this Example. In addition, the binding activity of anti-Aβ antibody 6E10 (manufactured by CONVANCE) was measured as a control antibody.
The Aβ monomers obtained in (2) of Example (2) were immobilized to the SA sensor chip (manufactured by GE Healthcare Bio-sciences) by the biotin capturing method. Onto the chip to which the Aβ monomers were immobilized, samples for measurement, which were prepared to have 5 levels of density by diluting from 30 μg/mL by doubling dilution in a stepwise manner (6E10, HV0LV0, HV0LV2a, HV0LV4 and HV12LV4), were sequentially injected and measured in the order from the lower density based on the automatic program of the multi-kinetics mode.

T2 sequence (P05067 672-711 limits assumed): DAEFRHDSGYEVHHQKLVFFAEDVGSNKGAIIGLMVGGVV
T1 sequence (P05067 672-713 limits assumed): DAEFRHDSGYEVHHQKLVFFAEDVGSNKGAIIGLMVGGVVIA

B1: anti-Aβ oligomer humanized antibody HV0LV2a (antibody, V domains shown)
VH: QVQLVQSGAEVKKPGASVKVSCKASGYTFTSYWMHWVRQAPGQGLEWMGEINPRNGGTNNNENFKRRVTITADTSTSTAYMELSSLRSEDTAVYYCARDGNYDPFAYWGQGTLVTVSS
VL: DIVMTQSPLSLPVTPGEPASISCRSSQSLVHSNGNTYLHWYLQKPGQSPKLLIYKVSNRFSGVPDRFSGSGSGTDFTLKISRVEAEDVGVYFCSQSTHVPPYTFGQGTKLEIK
notes: also called 6E4HV0 + LV2a
As usually defined, the koff is the first-order rate constant of dissociation. The term kon denotes a measure of how fast the partners come together. High values mean fast association, low ones slow association. The molecule B1 gave a Kd in assay [1] of 61 nM. This molecule returned a dissociation rate constant (koff) in assay [2] of 0.00039 s⁻¹. This molecule displayed a kon in assay [3] of 6400 M⁻¹ s⁻¹. Moreover, the binding result in assay [4] is given as “no binding (tested: 30 µg/mL highest of 5 two-fold dilutions)”.

B2: anti-Aβ oligomer humanized antibody HV12LV4 (antibody, V domains shown)
VH: QVQLVQSGAEVVKPGASVKLSCKASGYTFTSYWMHWVKLAPGQGFEWIGEINPRNGGTNNNENFKRKATLTVDKSTSTAYMELSSLRSEDTAVYYCTRDGNYDPFAYWGQGTLVTVSS
VL: DVVMTQSPLSLPVTLGEPASISCRSSQSLVHSNGNTYLHWYLQKPGQSPKLLIYKVSNRFSGVPDRFSGSGSGTDFTLKISRVEAEDVGVYFCSQSTHVPPYTFGQGTKLEIK
With B2, the Kd in assay [1] came to 300 nM. This molecule also returned a koff in assay [2] of 0.00081 s⁻¹. The molecule further had a kon in assay [3] of 2700 M⁻¹ s⁻¹. Also, the binding result in assay [4] was “no binding (tested: 30 µg/mL highest of 5 two-fold dilutions)”.

B3: anti-Aβ oligomer humanized antibody HV0LV0 (antibody, V domains shown)
VH: QVQLVQSGAEVKKPGASVKVSCKASGYTFTSYWMHWVRQAPGQGLEWMGEINPRNGGTNNNENFKRRVTITADTSTSTAYMELSSLRSEDTAVYYCARDGNYDPFAYWGQGTLVTVSS
VL: DIVMTQSPLSLPVTPGEPASISCRSSQSLVHSNGNTYLHWYLQKPGQSPQLLIYKVSNRFSGVPDRFSGSGSGTDFTLKISRVEAEDVGVYYCSQSTHVPPYTFGQGTKLEIK
notes: Whole humanized antibody expressed from vector pKANTEX93 (WO 97/10354) with human constant regions; Produced in FUT8 knockout CHO/DG44 cells (no core fucose); also called 6E4HV0 + 6E4LV0
In assay [1], B3 yielded a Kd of 40 nM. Besides, the koff in assay [2] worked out at 0.00069 s⁻¹. The kon in assay [3] is 17000 M⁻¹ s⁻¹. Also, in assay [4], the binding result is on record as “no binding (tested: 30 µg/mL highest of 5 two-fold dilutions)”.

B4: anti-Aβ oligomer humanized antibody HV0LV4 (antibody, V domains shown)
VH: QVQLVQSGAEVKKPGASVKVSCKASGYTFTSYWMHWVRQAPGQGLEWMGEINPRNGGTNNNENFKRRVTITADTSTSTAYMELSSLRSEDTAVYYCARDGNYDPFAYWGQGTLVTVSS
VL: DVVMTQSPLSLPVTLGEPASISCRSSQSLVHSNGNTYLHWYLQKPGQSPKLLIYKVSNRFSGVPDRFSGSGSGTDFTLKISRVEAEDVGVYFCSQSTHVPPYTFGQGTKLEIK
notes: also called 6E4HV0 + LV4
The molecule B4 registered a Kd in assay [1] of 71 nM. The molecule further came in with a koff in assay [2] of 0.0005 s⁻¹. The molecule also returned a kon in assay [3] of 7000 M⁻¹ s⁻¹. The binding result in assay [4] was “no binding (tested: 30 µg/mL highest of 5 two-fold dilutions)”.
